{
  "source": "paper PMC3386215",
  "about": "(Molecular Biology of the Cell, 2012)",
  "target": "T1, His-Msb3 (S. cerevisiae, UniProt P48566 1-633)",
  "T1 sequence": "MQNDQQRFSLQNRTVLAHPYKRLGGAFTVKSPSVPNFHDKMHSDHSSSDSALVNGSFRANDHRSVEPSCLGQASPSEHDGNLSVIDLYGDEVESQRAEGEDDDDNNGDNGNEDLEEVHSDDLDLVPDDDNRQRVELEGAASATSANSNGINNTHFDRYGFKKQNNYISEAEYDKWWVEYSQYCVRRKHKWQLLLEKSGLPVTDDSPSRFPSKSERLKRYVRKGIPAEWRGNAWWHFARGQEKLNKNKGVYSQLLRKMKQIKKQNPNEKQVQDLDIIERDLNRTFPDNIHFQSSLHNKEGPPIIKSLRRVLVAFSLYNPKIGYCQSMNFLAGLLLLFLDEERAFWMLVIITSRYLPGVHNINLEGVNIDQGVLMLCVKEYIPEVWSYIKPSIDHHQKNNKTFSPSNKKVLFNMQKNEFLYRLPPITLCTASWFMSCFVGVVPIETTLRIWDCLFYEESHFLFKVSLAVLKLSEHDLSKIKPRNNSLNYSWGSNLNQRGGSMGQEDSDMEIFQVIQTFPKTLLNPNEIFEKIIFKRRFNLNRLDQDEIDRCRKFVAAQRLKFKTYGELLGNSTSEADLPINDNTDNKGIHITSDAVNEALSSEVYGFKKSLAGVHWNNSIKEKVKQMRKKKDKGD",
  "assay": "pull-down",
  "data": [
    {"binder": "GST-Vps21 (preloaded with GDP) (enzyme) MNTSVTSIKLVLLGEAAVGKSSIVLRFVSNDFAENKEPTIGAAFLTQRVTINEHTVKFEIWDTAGQERFASLAPMYYRNAQAALVVYDVTKPQSFIKARHWVKELHEQASKDIIIALVGNKIDMLQEGGERKVAREEGEKLAEEKGLLFFETSAKTGENVNDVFLGIGEKIPLKTAEEQNSASNERESNNQRVDLNAANDGTSANSACSC", "values": [
      {"measurement": "binding result", "value": "binds"}
    ]}
  ]
}
